Test results: the supplement of paper PMC9112550, “Optimization of the antimicrobial peptide Bac7 by deep mutational scanning” (BMC Biology, 2022)

Tested on: Escherichia coli TOP10
Experiment: shrunken log2 fold change of peptide-encoding DNA abundance (4.5 h post-induction vs induction); higher = less antimicrobial activity (less host growth inhibition)
Details: time post-induction: 4.5 h; library: site-saturation at positions 5, 18, 19, 20
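Also: peptides expressed intracellularly from a pBAD plasmid library in pooled LB shake-flask culture, induced with 0.3% L-arabinose, DNA abundance read by NGS, three biological replicates, DESeq2 with apeglm shrinkage.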

Sequence | shrunken log2 fold change
RRIRLRPPRLPRPRPRPAIDPRP | -0.283
RRIRHRPPRLPRPRPRPGSHPRP | -0.226
RRIRNRPPRLPRPRPRPHRAPRP | 0.264
RRIRERPPRLPRPRPRPCWEPRP | -0.0225
RRIRNRPPRLPRPRPRPGWRPRP | 0.564
RRIRQRPPRLPRPRPRPMVAPRP | 0.143
RRIRQRPPRLPRPRPRPKFAPRP | 0.0489
RRIRVRPPRLPRPRPRPACEPRP | 0.165
RRIRWRPPRLPRPRPRPYIGPRP | -0.127
RRIRGRPPRLPRPRPRPWAMPRP | 0.483
RRIRFRPPRLPRPRPRPGHFPRP | -0.24
RRIRCRPPRLPRPRPRPWYRPRP | -0.705
RRIRYRPPRLPRPRPRPVAVPRP | 3.17
RRIRWRPPRLPRPRPRPFWNPRP | -0.175
RRIRMRPPRLPRPRPRPVIAPRP | 0.125
RRIRIRPPRLPRPRPRPQKDPRP | -0.421
RRIRCRPPRLPRPRPRPFNIPRP | -0.436
RRIRARPPRLPRPRPRPIGRPRP | 0.00162
RRIRRRPPRLPRPRPRPYLDPRP | -0.546
RRIRSRPPRLPRPRPRPSDWPRP | 0.0164
RRIRFRPPRLPRPRPRPQAVPRP | 0.0175
RRIRPRPPRLPRPRPRPSMNPRP | -0.522
RRIRSRPPRLPRPRPRPTYMPRP | -0.55
RRIRCRPPRLPRPRPRPDAAPRP | 1.03
RRIRHRPPRLPRPRPRPTHWPRP | 0.706

Sequence | shrunken log2 fold change
RRIRHRPPRLPRPRPRPTAVPRP | -0.295
RRIRMRPPRLPRPRPRPIIAPRP | 0.0852
RRIRWRPPRLPRPRPRPSIAPRP | 0.0837
RRIRERPPRLPRPRPRPHWYPRP | -1.19
RRIRHRPPRLPRPRPRPHMKPRP | 0.181
RRIRRRPPRLPRPRPRPFMSPRP | -0.327
RRIRLRPPRLPRPRPRPFITPRP | -0.35
RRIRHRPPRLPRPRPRPNCRPRP | -0.0986
RRIRTRPPRLPRPRPRPFPYPRP | -0.00797
RRIRKRPPRLPRPRPRPILTPRP | -0.149
RRIRMRPPRLPRPRPRPIQDPRP | -0.114
RRIRPRPPRLPRPRPRPQSFPRP | 0.0475
RRIRDRPPRLPRPRPRPSPSPRP | -0.018
RRIRLRPPRLPRPRPRPKWQPRP | -0.0304
RRIRNRPPRLPRPRPRPSIVPRP | -0.335
RRIRCRPPRLPRPRPRPGVWPRP | 0.537
RRIRQRPPRLPRPRPRPTLVPRP | 0.186
RRIRMRPPRLPRPRPRPKTCPRP | 0.12
RRIRHRPPRLPRPRPRPFFYPRP | -0.4
RRIRTRPPRLPRPRPRPISKPRP | -0.17
RRIRYRPPRLPRPRPRPHPHPRP | -0.744
RRIRLRPPRLPRPRPRPWDPPRP | -0.125
RRIRYRPPRLPRPRPRPKNEPRP | -0.372
RRIRERPPRLPRPRPRPEMKPRP | 0.425
RRIRGRPPRLPRPRPRPNSCPRP | 0.0941
